B1: FM PEP: recombinant prolyl endopeptidase from Flavobacterium meningosepticum (Genbank D10980) (protein)
chain: QNSNVLKYPETKKVSHTDTYFGTQVSDPYRWLEDDRAEDTKAWVQQEVKFTQDYLAQIPFRDQLKKQLMDIWNYEKISAPFKKGKYTYFSKNDGLQAQSVLYRKDAAGKTEVFLDPNKFSEKGTTSLASVSFNKKGTLVAYSISEGGSDWNKIIILDAETKKQLDETLLDVKFSGISWLGDEGFFYSSYDKPKEGSVLSGMTDKHKVYFHKLGTKQSQDELIIGGDKFPRRYIGAYVTDDQRYLVVSAANATNGNELYIKDLKNKTDFIPIITGFDSNVNVADTDGDTLYLFTDKDAPNKRLVKTTIQNPKAETWKDVIAETSEPLEINTGGGYFFATYMKDAIDQVKQYDKNGKLVRAIKLPGSGNASGFGGEKTEKDLYYSFTNYITPPTIFKYNVTTGNSEVYQKPKVKFNPENYVSEQVFYTSSDGTKIPMMISYKKGLKKDGKNPTILYSYGGFNISLQPAFSVVNAIWMENGGIYAVPNIRGGGEYGKKWHDAGTKMQKKNVFNDFIAAGEYLQKNGYTSKEYMALSGRSNGGLLVGATMTMRPDLAKVAFPGVGVLDMLRYNKFTAGAGWAYDYGTAEDSKEMFEYLKSYSPVHNVKAGTCYPSTMVITSDHDDRVVPAHSFKFGSELQAKQSCKNPILIRIETNAGHGAGRSTEQVVAENADLLSFALYEMGIKSLK
B2: MX PEP: novel recombinant prolyl endopeptidase from Myxococcus xanthus (Genbank AF127082, SEQ ID NO:47) (protein, listed as Myxococcus xanthus)
chain: MSYPATRAEQVVDTLHGVQVADPYRWLEDEKAPEVQTWMTAQNAHAREALAKFPGREALAARFKELFYTDSVSTPSRRNGRFFYVRTHKDKEKAILYWRQGESGQEKVLLDPNGWSKDGTVSLGTWAVSWDGKKVAFAQKPNAADEAVLHVIDVDSGEWSKVDVIEGGKYATPKWTPDSKGFYYEWLPTDPSIKVDERPGYTTIRYHTLGTEPSKDTVVHERTGDPTTFLQSDLSRDGKYLFVYILRGWSENDVYWKRPGEKDFRLLVKGVGAKYEVHAWKDRFYVLTDEGAPRQRVFEVDPAKPARASWKEIVPEDSSASLLSVSIVGGHLSLEYLKDATSEVRVATLKGKPVRTVQLPGVGAASNLMGLEDLDDAYYVFTSFTTPRQIYKTSVSTGKSELWAKVDVPMNPEQYQVEQVFYASKDGTKVPMFVVHRKDLKRDGNAPTLLYGYGGFNVNMEANFRSSILPWLDAGGVYAVANLRGGGEYGKAWHDAGRLDKKQNVFDDFHAAAEYLVQQKYTQPKRLAIYGGSNGGLLVGAAMTQRPELYGAVVCAVPLLDMVRYHLFGSGRTWIPEYGTAEKPEDFKTLHAYSPYHHVRPDVRYPALLMMAADHDDRVDPMHARKFVAAVQNSPGNPATALLRIEANAGHGGADQVAKAIESSVDLYSFLFQVLDVQGAQGGVAAQGR

Columns and labels:
[1] = Allergenicity of the denatured protein; parameters: species or system rodents, rabbits and humans; details: in vivo
[2] = test system: LQLQPFPQPQLPYPQPQLPYPQPQLPYPQPQPF (33-mer); test: Hydrolysis of the 33-mer gliadin peptide by PEPs, HPLC; assay type: biochemical, wheat; details: for rate of substrate (33-mer+32-mer) disappearance: 10 μM substrate; for initial hydrolytic products of the 33-mer: LC/MS/MS
Method: FIGS. 11A-11C. Hydrolysis of (SEQ ID NO:12) […] by FM PEP, MX PEP and SC PEP. (A) Time dependence of hydrolysis in the presence of 10 μM substrate and 0.1 μM enzyme. […] (B) Initial cleavage fragments observed due to hydrolysis by FM PEP (t=1 min) and MX PEP (t=5 min). (C) Summary of initial cleavage fragments from FM PEP and MX PEP catalyzed hydrolysis of the 33-mer substrate.
Substrate Specificity. In addition to the reference substrates above, enzyme specificity was also evaluated using two immunogenic peptides derived from the sequence of γ-gliadin proteins in gluten. Both peptides were synthesized using solid-phase peptide synthesis. The peptide (SEQ ID NO:4) […] contains the immunodominant γII-epitope, and is resistant to proteolysis by pepsin or any pancreatic enzyme. PEP specificity toward this substrate was assessed in a competitive assay in which 100 μM (SEQ ID NO:4) […] and 100 μM Suc-Ala-Pro-pNA were mixed and reacted with 0.02 μM PEP at 25° C. The initial velocity of Suc-Ala-Pro-pNA cleavage was measured spectrophotometrically, whereas the initial velocity of (SEQ ID NO:4) […] hydrolysis was determined via HPLC. The apparent specificity, kcat/KM, for the hydrolysis of (SEQ ID NO:4) […] could be determined based on the known kcat/KM of the enzyme for Suc-Ala-Pro-pNA and the observed reaction rates of the two substrates. […] Proteolysis reactions were performed at 37° C. in PBS buffer with 5-100 μM peptide and 0.1 μM PEP for time periods of 1 min-4 hrs.
(§1) The decrease in substrate concentration as well as concomitant intermediate and product build-up were monitored with HPLC analysis. RP-HPLC was performed on a system consisting of Beckman or Rainin Dynamax SD-200, a Varian 340 UV detector set at 215 nm and 280 nm. Solvent A was H2O with 0.1% TFA and solvent B was acetonitrile with 0.1% TFA; gradient used: 0-5% B in 0-15 min, 5-30% B in 15-30′, 30-100% B in 30-35 min, 100% B for 5′; flow 1 ml/min; separation was performed on a 4.6×150 mm reverse phase C-18 column (Vydac, Hesperia, Calif., USA). Samples were centrifuged for 10 min at 13,400 g, prior to injection of 10-100 μl. […] Thus, multiple peptides accumulate during the course of the reaction, some of which are secondary PEP substrates in themselves.
Chain Length Tolerance and Selectivity. […] Thus, the SC PEP appears to have a severe chain length restriction for long peptide substrates.

[3] = pH stability (activity retained after acid exposure); assay type: in vitro ADME; details: after 10 min of incubation at pH values between 1.6 and 3.9
Method: pH Stability. The ability to retain enzyme activity after exposure to acidic environments was determined. […] The recovered enzyme activity was measured spectrophotometrically and compared with non-acid treated controls under identical conditions. PEP Stability. Although orally administered therapeutic proteins can be formulated to protect them from the acidic and proteolytic environment of the stomach, intrinsic acid stability of a PEP is likely to be a desirable characteristic in its use as a therapeutic agent for Celiac Sprue. […] Thus, although all PEPs appear to be moderately acid-stable, the MX PEP is most versatile. Since therapeutic efficacy would require a PEP to act upon gluten in conjunction with pancreatic proteases that are secreted into the duodenum, the resistance of FM PEP and MX PEP toward both gastric and pancreatic enzymes was evaluated. For this we pre-incubated the enzymes with physiological quantities of either pepsin (at pH 2) or a cocktail comprising of trypsin, chymotrypsin, elastase and carboxypeptidase A (at pH 6.5).

[4] = test system: PQPQLPYPQPQLP; test: Site specificity of […] hydrolysis, LC/MS/MS; assay type: biochemical, wheat; details: 100 μM peptide, 0.1 μM enzyme, early time points
Method: FIG. 10. Site specificity of […] hydrolysis by individual PEPs. HPLC-UV (215 nm) traces are shown for each reaction mixture. Initial cleavage fragments (100 μM (SEQ ID NO:4) […], 0.1 μM enzyme, t=5 min) were identified by tandem mass spectrometry. The starting material (SEQ ID NO:4) […] and the cleavage fragments A: (SEQ ID NO:4, aa. 1-8) […], B: (SEQ ID NO:4, aa 7-13) YPQPQLP, C: (SEQ ID NO:12, aa 1-6) PQPQLP, D: (SEQ ID NO:4, aa 2-6) QPQLP) are indicated in the traces.
as §1
To analyze the regiospecificity of hydrolysis of (SEQ ID NO:4) […] by individual PEPs, samples corresponding to early time points were further analyzed by LC/MS/MS. […]

Molecule	allergenicity of the denatured protein [1]	time to hydrolyze 10 μM of the 33-mer ([2]; 0.1 μM enzyme) [min]	rate of substrate (33-mer+32-mer) disappearance ([2]; 0.1 μM enzyme) [µM/min]	initial hydrolytic products of the 33-mer [2]	faster action on the 33-mer than the MX PEP ([2]; based on initial rates) [fold]	faster action on the 33-mer than the SC PEP ([2]; based on initial rates) [fold]	original activity retained [3]	preferred site of cleavage in PQPQLPYPQPQLP [4]
B1	non-allergenic in rodents, rabbits and humans	2 to 3	2.3	yielded longer intermediates	5	> 20	50-70%	PQPQLPPYP|QPQLP
B2			0.43	fragments mostly of 4-5 residues			70-90%	PQPQLP|YPQPQLP

— patent US8796201B2 (The Board of Trustees of the Leland Stanford Junior …, priority 2002, dated 2014)
